The values below come from patent US20090293142A1.

Assay [1] addresses invertase activity in the soluble fraction of a leaf extract of a wild type plant. Briefly: cell-based or functional assay.
Assay [2] deals with invertase activity in the cell wall fraction of wild type tobacco leaves. In words: cell-based or functional assay.

In the case of “Arabidopsis thaliana cell wall invertase inhibitor AtC/VIF2 (At5g46940)”, the invertase activity in mixed-extract assay, percent of the added value of the extracts incubated separately (5 mM sucrose, pH 4.5) in assay [1] turned out to be 86%. For “Arabidopsis thaliana vacuolar invertase inhibitor AtC/VIF1 (At1g47960) (from UniProt F4HWQ8 24-205)”, in assay [1], the invertase activity in mixed-extract assay, percent of the added value of the extracts incubated separately (5 mM sucrose, pH 4.5) was 79%.

In assay [2], “tobacco apoplasmic invertase inhibitor (Greiner et al., 1998)” registered an invertase activity in mixed-extract assay, percent of the added value (1 mM sucrose; concentrated cell wall fraction of transgenic leaves) of 58% and an invertase activity in mixed-extract assay, percent of the added value (5 mM sucrose; concentrated cell wall fraction of infiltrated transgenic leaves) of 70%.
